# Measurements as given in PMC3135403 (The Journal of Cell Biology, 2011).
# Substitutions are numbered along the chain they refer to. In names and notes the source's numbering stands.
# B1: Noxa (full-length, S peptide and His6 tagged) (natural protein, human, UniProt Q13794-1 1-54, looked up)
# chain: MPGKKARKNAQPSPARAPAELEVECATQLRRFGDKLNFRQKLLNLISKLFCSGT
# B2: tBid (domain or fragment, human, UniProt P55957 61-195, looked up)
# chain: GNRSSHSRLGRIEADSESQEDIIRNIARHLAQVGDSMDRSIPPGLVNGLALQLRNTSRSEEDRNRDLATALEQLLQAYPRDMEKEKTMLVLALLLAKKVASHTPSLLRDVFHTTVNFINQNLRTYVRSLARNGMD
# B3: His6-Bak R36A (domain or fragment, human, UniProt Q16611 1-186, looked up)
# chain: MASGQGPGPPRQECGEPALPSASEEQVAQDTEEVFASYVFYRHQQEQEAEGVAAPADPEMVTLPLQPSSTMGQVGRQLAIIGDDINRRYDSEFQTMLQHLQPTAENAYEYFTKIATSLFESGINWGRVVALLGFGYRLALHVYQHGLTGFLGQVTRFVVDFMLHHCIARWIAQRGGWVAALNLGNG
# Experiments:
# GST-Bak 114E = molecular target: T1, GST-Bak 114E (human, UniProt Q16611 1-186, Bak 114E); assay: SPR
# T1 sequence (looked up): B3 chain with A36R, I114E
# GST-BakΔTM R36A = molecular target: T2, GST-BakΔTM R36A (human, UniProt Q16611 1-186, R36A); assay: SPR
# T2 sequence (looked up): B3 chain
# GST-Bak 93E/114E = molecular target: T3, GST-Bak 93E/114E (human, UniProt Q16611 1-186, Bak 93E/114E (93E) | Bak 93E/114E (114E)); assay: SPR
# T3 sequence (looked up): B3 chain with A36R, F93E, I114E
# GST-Bak 93E = molecular target: T4, GST-Bak 93E (human, UniProt Q16611 1-186, Bak 93E); assay: SPR
# T4 sequence (looked up): B3 chain with A36R, F93E
# GST-BakΔTM [1] = molecular target: T5, GST-BakΔTM (human, UniProt Q16611 1-186); assay: SPR
# T5 sequence (looked up): B3 chain with A36R
# GST-BakΔTM [2] = molecular target: T5, GST-BakΔTM; assay: SPR; remark: listed apart in the source
# SEC = molecular target: the molecule itself; assay: SEC
binder,measurement,setting,value
B1,binding result,GST-Bak 114E,binds
same,binding result,GST-BakΔTM R36A,binds
same,binding result,GST-Bak 93E/114E,binds
same,binding result,GST-Bak 93E,binds
same,Kd,GST-BakΔTM [1],24 nM
B2,binding result,GST-BakΔTM [2],binds
B3,binding result,SEC,binds
"MPGKKARKNAQPSPARAPAELEVECATQLRRFGDKLNFRQ (domain or fragment, human, UniProt Q13794-1 1-40, looked up) [NoxaΔCT]",binding result,GST-BakΔTM [2],binds
